The values that follow come from article PMC11929908 (Nature Communications, 2025).

In series [1] the target is PsiD R135A/Q136A (Psilocybe cubensis) (UniProt P0DPA6). The series is described as follows: SEC.
The series “SEC” deals with the molecule itself. The series is described as follows: SEC.
Series [2] concerns the molecule itself. The series can be described thus: crystal structure.
Series [3] concerns the molecule itself. The series is described as follows: crystal structure. The source holds these as a separate data set.

The molecule “PsiD R135A/Q136A (from UniProt P0DPA6 1-402) (enzyme)” gave a stoichiometry N in series [1] of 2.

B1: PsiD (1–439) S403A (enzyme, Psilocybe cubensis, UniProt P0DPA6 1-439, looked up)
chain: MQVIPACNSAAIRSLCPTPESLRNMGWLSVSDAVYSEFIGELATRASNRNYSNEFGLMQPIQEFKAFIESDPVVHQEFIDMFEGIQDSPRNYQELCNMFNDIFRKAPVYGDLGPPVYMIMAKLMNTRAGFSAFTRQRLNLHFKKLFDTWGLFLSSKDSRNVLVADQFDDRHCGWLNERALSAMVKHYNGRAFDEVFLCDKNAPYYGFNSYDDFFNRRFRNRDIDRPVVGGVNNTTLISAACESLSYNVSYDVQSLDTLVFKGETYSLKHLLNNDPFTPQFEHGSILQGFLNVTAYHRWHAPVNGTIVKIINVPGTYFAQAPSTIGDPIPDNDYDPPPYLKSLVYFSNIAARQIMFIEADNKEIGLIFLVFIGMTEISTCEATVSEGQHVNRGDDLGMFHFGGASFALGLRKDCRAEIVEKFTEPGTVIRINEVVAALKA
Consider B1, for which the “stoichiometry N” value in the series “SEC” was 2.

B2: L-tryptophan decarboxylase PsiD, full-length (1–439), wildtype, self-cleaved mature enzyme (enzyme, Psilocybe cubensis)
chain 1: MQVIPACNSAAIRSLCPTPESLRNMGWLSVSDAVYSEFIGELATRASNRNYSNEFGLMQPIQEFKAFIESDPVVHQEFIDMFEGIQDSPRNYQELCNMFNDIFRKAPVYGDLGPPVYMIMAKLMNTRAGFSAFTRQRLNLHFKKLFDTWGLFLSSKDSRNVLVADQFDDRHCGWLNERALSAMVKHYNGRAFDEVFLCDKNAPYYGFNSYDDFFNRRFRNRDIDRPVVGGVNNTTLISAACESLSYNVSYDVQSLDTLVFKGETYSLKHLLNNDPFTPQFEHGSILQGFLNVTAYHRWHAPVNGTIVKIINVPGTYFAQAPSTIGDPIPDNDYDPPPYLKSLVYFSNIAARQIMFIEADNKEIGLIFLVFIGMTEISTCEATVSEGQHVNRGDDLGMFHFGG
chain 2: SSFALGLRKDCRAEIVEKFTEPGTVIRINEVVAALKA
modifications: pyruvoyl prosthetic group at 403 (Pvl403, formed from Ser403)
B2: the “stoichiometry N” value in “crystal structure [2]” is 2.

B3: PsiD (50–439), self-cleaved, co-crystallised with L-tryptophan (domain or fragment, Psilocybe cubensis)
chain 1: NYSNEFGLMQPIQEFKAFIESDPVVHQEFIDMFEGIQDSPRNYQELCNMFNDIFRKAPVYGDLGPPVYMIMAKLMNTRAGFSAFTRQRLNLHFKKLFDTWGLFLSSKDSRNVLVADQFDDRHCGWLNERALSAMVKHYNGRAFDEVFLCDKNAPYYGFNSYDDFFNRRFRNRDIDRPVVGGVNNTTLISAACESLSYNVSYDVQSLDTLVFKGETYSLKHLLNNDPFTPQFEHGSILQGFLNVTAYHRWHAPVNGTIVKIINVPGTYFAQAPSTIGDPIPDNDYDPPPYLKSLVYFSNIAARQIMFIEADNKEIGLIFLVFIGMTEISTCEATVSEGQHVNRGDDLGMFHFGG
chain 2: B2 chain 2
modifications: pyruvoyl prosthetic group at 403 (Pvl403, formed from Ser403)
With B3, in the series “crystal structure [3]”, the “stoichiometry N” value is 2.
